According to patent US12099068B2, “Biomarkers for graft-versus-host disease” (Incyte Corporation, priority 2018, dated 2024):

B1: MAP2K6 (protein, UniProt P52564 1-334, looked up)
Dual specificity …: MSQSKGKKRNPGLKIPKEAFEQPQTSSTPPRDLDSKACISIGNQNFEVKADDLEPIMELGRGAYGVVEKMRHVPSGQIMAVKRIRATVNSQEQKRLLMDLDISMRTVDCPFTVTFYGALFREGDVWICMELMDTSLDKFYKQVIDKGQTIPEDILGKIAVSIVKALEHLHSKLSVIHRDVKPSNVLINALGQVKMCDFGISGYLVDSVAKTIDAGCKPYMAPERINPELNQKGYSVKSDIWSLGITMIELAILRFPYDSWGTPFQQLKQVVEEPSPQLPADKFSAEFVDFTSQCLKKNSKERPTYPELMQHPFFTLHESKGTDVASFVKLILGD
B2: IRAK1 (protein, UniProt P51617 1-712, looked up)
Interleukin-1 …: MAGGPGPGEPAAPGAQHFLYEVPPWVMCRFYKVMDALEPADWCQFAALIVRDQTELRLCERSGQRTASVLWPWINRNARVADLVHILTHLQLLRARDIITAWHPPAPLPSPGTTAPRPSSIPAPAEAEAWSPRKLPSSASTFLSPAFPGSQTHSGPELGLVPSPASLWPPPPSPAPSSTKPGPESSVSLLQGARPFPFCWPLCEISRGTHNFSEELKIGEGGFGCVYRAVMRNTVYAVKRLKENADLEWTAVKQSFLTEVEQLSRFRHPNIVDFAGYCAQNGFYCLVYGFLPNGSLEDRLHCQTQACPPLSWPQRLDILLGTARAIQFLHQDSPSLIHGDIKSSNVLLDERLTPKLGDFGLARFSRFAGSSPSQSSMVARTQTVRGTLAYLPEEYIKTGRLAVDTDTFSFGVVVLETLAGQRAVKTHGARTKYLKDLVEEEAEEAGVALRSTQSTLQAGLAADAWAAPIAMQIYKKHLDPRPGPCPPELGLGLGQLACCCLHRRAKRRPPMTQVYERLEKLQAVVAGVPGHSEAASCIPPSPQENSYVSSTGRAHSGAAPWQPLAAPSGASAQAAEQLQRGPNQPVESDESLGGLSAALRSWHLTPSCPLDPAPLREAGCPQGDTAGESSWGSGPGSRPTAVEGLALGSSASSSSEPPQIIINPARQKMVQKLALYEDGALDSLQLLSSSSLPGLGLEQDRQGPEESDEFQS
B3: DFFA (protein, UniProt O00273 1-331, looked up)
DNA fragmentation factor …: MEVTGDAGVPESGEIRTLKPCLLRRNYSREQHGVAASCLEDLRSKACDILAIDKSLTPVTLVLAEDGTIVDDDDYFLCLPSNTKFVALASNEKWAYNNSDGGTAWISQESFDVDETDSGAGLKWKNVARQLKEDLSSIILLSEEDLQMLVDAPCSDLAQELRQSCATVQRLQHTLQQVLDQREEVRQSKQLLQLYLQALEKEGSLLSKQEESKAAFGEEVDAVDTGISRETSSDVALASHILTALREKQAPELSLSSQDLELVTKEDPKALAVALNWDIKKTETVQEACERELALRLQQTQSLHSLRSISASKASPPGDLQNPKRARQDPT
B4: CRKL (protein, UniProt P46109 1-303, looked up)
Crk-like protein: MSSARFDSSDRSAWYMGPVSRQEAQTRLQGQRHGMFLVRDSSTCPGDYVLSVSENSRVSHYIINSLPNRRFKIGDQEFDHLPALLEFYKIHYLDTTTLIEPAPRYPSPPMGSVSAPNLPTAEDNLEYVRTLYDFPGNDAEDLPFKKGEILVIIEKPEEQWWSARNKDGRVGMIPVPYVEKLVRSSPHGKHGNRNSNSYGIPEPAHAYAQPQTTTPLPAVSGSPGAAITPLPSTQNGPVFAKAIQKRVPCAYDKTALALEVGDIVKVTRMNINGQWEGEVNGRKGLFPFTHVKIFDPQNPDENE
B5: STX6 (protein, UniProt O43752 2-255, looked up)
Syntaxin-6: SMEDPFFVVKGEVQKAVNTAQGLFQRWTELLQDPSTATREEIDWTTNELRNNLRSIEWDLEDLDETISIVEANPRKFNLDATELSIRKAFITSTRQVVRDMKDQMSTSSVQALAERKNRQALLGDSGSQNWSTGTTDKYGRLDRELQRANSHFIEEQQAQQQLIVEQQDEQLELVSGSIGVLKNMSQRIGGELEEQAVMLEDFSHELESTQSRLDNVMKKLAKVSHMTSDRRQWCAIAILFAVLLVVLILFLVL
B6: CCL5 (protein, UniProt P13501 24-91, looked up)
C-C motif chemokine 5: SPYSSDTTPCCFAYIARPLPRAHIKEYFYTSGKCSNPAVVFVTRKNRQVCANPEKKWVREYINSLEMS
B7: ANG-1 (protein, UniProt Q15389 16-498, looked up)
Angiopoietin-1: HIGCSNQRRSPENSGRRYNRIQHGQCAYTFILPEHDGNCRESTTDQYNTNALQRDAPHVEPDFSSQKLQHLEHVMENYTQWLQKLENYIVENMKSEMAQIQQNAVQNHTATMLEIGTSLLSQTAEQTRKLTDVETQVLNQTSRLEIQLLENSLSTYKLEKQLLQQTNEILKIHEKNSLLEHKILEMEGKHKEELDTLKEEKENLQGLVTRQTYIIQELEKQLNRATTNNSVLQKQQLELMDTVHNLVNLCTKEGVLLKGGKREEEKPFRDCADVYQAGFNKSGIYTIYINNMPEPKKVFCNMDVNGGGWTVIQHREDGSLDFQRGWKEYKMGFGNPSGEYWLGNEFIFAITSQRQYMLRIELMDWEGNRAYSQYDRFHIGNEKQNYRLYLKGHTGTAGKQSSLILHGADFSTKDADNDNCMCKCALMLTGGWWFDACGPSNLNGMFYTAGQNHGKLNGIKWHYFKGPSYSLRSTTMMIRPLDF
B8: PRTN3 (protein, UniProt P24158 28-248, looked up)
Myeloblastin: IVGGHEAQPHSRPYMASLQMRGNPGSHFCGGTLIHPSFVLTAAHCLRDIPQRLVNVVLGAHNVRTQEPTQQHFSVAQVFLNNYDAENKLNDVLLIQLSSPANLSASVATVQLPQQDQPVPHGTQCLAMGWGRVGAHDPPAQVLQELNVTVVTFFCRPHNICTFVPRRKAGICFGDSGGPLICDGIIQGIDSFVIWGCATRLFPDFFTRVALYVDWIRSTLR
B9: PILRA (protein, UniProt Q9UKJ1 20-303, looked up)
Paired immunoglobulin-like …: QPSGSTGSGPSYLYGVTQPKHLSASMGGSVEIPFSFYYPWELATAPDVRISWRRGHFHRQSFYSTRPPSIHKDYVNRLFLNWTEGQKSGFLRISNLQKQDQSVYFCRVELDTRSSGRQQWQSIEGTKLSITQAVTTTTQRPSSMTTTWRLSSTTTTTGLRVTQGKRRSDSWHISLETAVGVAVAVTVLGIMILGLICLLRWRRRKGQQRTKATTPAREPFQNTEEPYENIRNEGQNTDPKLNPKDDGIVYASLALSSSTSPRAPPSHRPLKSPQNETLYSVLKA
B10: PPP1R2 (protein, UniProt P41236 2-205, looked up)
Protein phosphatase inhibitor …: AASTASHRPIKGILKNKTSTTSSMVASAEQPRGNVDEELSKKSQKWDEMNILATYHPADKDYGLMKIDEPSTPYHSMMGDDEDACSDTEATEAMAPDILARKLAAAEGLEPKYRIQEQESSGEEDSDLSPEEREKKRQFEMKRKLHYNEGLNIKLARQLISKDLHDDDEDEEMLETADGESMNTEESNQGSTPSDQQQNKLRSS
B11: SMOC2 (protein, UniProt Q9H3U7 22-446, looked up)
SPARC-related modular …: QKFSALTFLRVDQDKDKDCSLDCAGSPQKPLCASDGRTFLSRCEFQRAKCKDPQLEIAYRGNCKDVSRCVAERKYTQEQARKEFQQVFIPECNDDGTYSQVQCHSYTGYCWCVTPNGRPISGTAVAHKTPRCPGSVNEKLPQREGTGKTDDAAAPALETQPQGDEEDIASRYPTLWTEQVKSRQNKTNKNSVSSCDQEHQSALEEAKQPKNDNVVIPECAHGGLYKPVQCHPSTGYCWCVLVDTGRPIPGTSTRYEQPKCDNTARAHPAKARDLYKGRQLQGCPGAKKHEFLTSVLDALSTDMVHAASDPSSSSGRLSEPDPSHTLEERVVHWYFKLLDKNSSGDIGKKEIKPFKRFLRKKSKPKKCVKKFVEYCDVNNDKSISVQELMGCLGVAKEDGKADTKKRHTPRGHAESTSNRQPRKQG

Test system: plasma proteins
Test: Plasma proteins modulated between baseline and day 28 in responders (CR, VGPR, PR; n = 19), Example 6 (Table 13)
Type: in vivo, human
Conditions: plasma protein (OLINK NPX); responders (CR, VGPR, PR; n = 19); itacitinib 200 mg or 300 mg QD with corticosteroids; day 28 vs baseline
Experimental: Due to the limited sample size, steroid-naive (N=10) and steroid-refractory (N=18) patients were combined for further analysis. Broad proteomic analysis of over 1000 proteins was conducted by OLINK Proteomics (Watertown, MA) using a proximity extension assay as described by the manufacturer. Data are presented as normalized protein expression (NPX) in log 2 scale. Statistical differences were evaluated using unpaired and paired t tests, one-way […] (ANOVA), and Pearson Correlation. Significance was conferred when P<0.05.
Longitudinal differences in protein expression were analyzed by evaluating plasma samples from baseline/screening and day 28.

Q: How did the “Fold Change, Decreased Expression from Baseline to Day 28” value (from here on “Fold Change, Decreased Expression”) turn out when B1 was run?
A: Its value is −1.8184.

Q: How did the “Fold Change, Decreased Expression” value turn out when B2 was run?
A: Its value is −1.2986.

Q: How did the “Fold Change, Decreased Expression” value turn out when B3 was run?
A: Its value is −1.31.

Q: B4 was tested. Which “Fold Change, Decreased Expression” value did it give?
A: Its value is −1.8003.

Q: How did the “Fold Change, Decreased Expression” value turn out when B5 was run?
A: The value was −1.4715.

Q: How did the “Fold Change, Decreased Expression” value turn out when B6 was run?
A: Its value is −1.6357.

Q: For B7, which “Fold Change, Decreased Expression” value is on record?
A: Its value is −1.7898.

Q: How did the “Fold Change, Decreased Expression” value turn out when B8 was run?
A: Its value is −1.7658.

Q: With B9 as the molecule, how does the “Fold Change, Decreased Expression” value read?
A: Its value is −1.2582.

Q: For B10, which “Fold Change, Decreased Expression” value is on record?
A: The value was −1.3339.

Q: With B11 as the molecule, how does the “Fold Change, Increased Expression from Baseline to Day 28” value read?
A: Its value is 1.2842.
